Laboratory results taken from article PMC3410435 (Structure (London, England : 1993), 2012).

Molecular target: the molecule itself
Assay: SEC

B1: PdeA(R69A) (enzyme, Caulobacter crescentus, UniProt Q9A310 1-555, looked up)
chain: MSFRTGERRIWDATATLEALGAADVALWIWEPETDRLRLNGAARALGLGPLAPECSSAAFRALALPQDAAQAEEVLKPREPGSEVVARFRVRGGETCLWRGVWLEEGVRAAGVVAPETKFSASELCDLTGLLDRRSFLARARERLAQEGTHQLVVADLDRLRRLNEALGHERADLVLAALGSRLAAAFPAQSILGRIGEDEFAVLCQPLGYEPSDVLRSALEQPLRVAGFDIHPTLSIGAVSAEGGLDAPDAAELLRRAELAVEAAAAAGRGGAAAYGRAMETDGLSRLALEADLRGAIGRGEITPYFQPIVRLSTGALSGFEALARWIHPRRGMLPPDEFLPLIEEMGLMSELGAHMMHAAAQQLSTWRAAHPAMGNLTVSVNLSTGEIDRPGLVADVAETLRVNRLPRGALKLEVTESDIMRDPERAAVILKTLRDAGAGLALDDFGTGFSSLSYLTRLPFDTLKIDRYFVRTMGNNAGSAKIVRSVVKLGQDLDLEVVAEGVENAEMAHALQSLGCDYGQGFGYAPALSPQEAEVYLNEAYVDGAAPVKARG
B1 was tested, and the “stoichiometry N” value was 2.
